Experimental data taken from IntAct's records for PubMed 31175292.

B1: Signal transducer and activator of transcription 5B (Homo sapiens), P51692 (parent)
chain: MAVWIQAQQLQGEALHQMQALYGQHFPIEVRHYLSQWIESQAWDSVDLDNPQENIKATQLLEGLVQELQKKAEHQVGEDGFLLKIKLGHYATQLQNTYDRCPMELVRCIRHILYNEQRLVREANNGSSPAGSLADAMSQKHLQINQTFEELRLVTQDTENELKKLQQTQEYFIIQYQESLRIQAQFGPLAQLSPQERLSRETALQQKQVSLEAWLQREAQTLQQYRVELAEKHQKTLQLLRKQQTIILDDELIQWKRRQQLAGNGGPPEGSLDVLQSWCEKLAEIIWQNRQQIRRAEHLCQQLPIPGPVEEMLAEVNATITDIISALVTSTFIIEKQPPQVLKTQTKFAATVRLLVGGKLNVHMNPPQVKATIISEQQAKSLLKNENTRNDYSGEILNNCCVMEYHQATGTLSAHFRNMSLKRIKRSDRRGAESVTEEKFTILFESQFSVGGNELVFQVKTLSLPVVVIVHGSQDNNATATVLWDNAFAEPGRVPFAVPDKVLWPQLCEALNMKFKAEVQSNRGLTKENLVFLAQKLFNNSSSHLEDYSGLSVSWSQFNRENLPGRNYTFWQWFDGVMEVLKKHLKPHWNDGAILGFVNKQQAHDLLINKPDGTFLLRFSDSEIGGITIAWKFDSQERMFWNLMPFTTRDFSIRSLADRLGDLNYLIYVFPDRPKDEVYSKYYTPVPCESATAKAVDGYVKPQIKQVVPEFVNASADAGGGSATYMDQAPSPAVCPQAHYNMYPQNPDSVLDTDGDFDLEDTMDVARRVEELLGRPMDSQWIPHAQS

Variants of: B1
Conditions: with abl1_human ABL1, P00519
Sequence of abl1_human ABL1, P00519 (P00519 whole entry): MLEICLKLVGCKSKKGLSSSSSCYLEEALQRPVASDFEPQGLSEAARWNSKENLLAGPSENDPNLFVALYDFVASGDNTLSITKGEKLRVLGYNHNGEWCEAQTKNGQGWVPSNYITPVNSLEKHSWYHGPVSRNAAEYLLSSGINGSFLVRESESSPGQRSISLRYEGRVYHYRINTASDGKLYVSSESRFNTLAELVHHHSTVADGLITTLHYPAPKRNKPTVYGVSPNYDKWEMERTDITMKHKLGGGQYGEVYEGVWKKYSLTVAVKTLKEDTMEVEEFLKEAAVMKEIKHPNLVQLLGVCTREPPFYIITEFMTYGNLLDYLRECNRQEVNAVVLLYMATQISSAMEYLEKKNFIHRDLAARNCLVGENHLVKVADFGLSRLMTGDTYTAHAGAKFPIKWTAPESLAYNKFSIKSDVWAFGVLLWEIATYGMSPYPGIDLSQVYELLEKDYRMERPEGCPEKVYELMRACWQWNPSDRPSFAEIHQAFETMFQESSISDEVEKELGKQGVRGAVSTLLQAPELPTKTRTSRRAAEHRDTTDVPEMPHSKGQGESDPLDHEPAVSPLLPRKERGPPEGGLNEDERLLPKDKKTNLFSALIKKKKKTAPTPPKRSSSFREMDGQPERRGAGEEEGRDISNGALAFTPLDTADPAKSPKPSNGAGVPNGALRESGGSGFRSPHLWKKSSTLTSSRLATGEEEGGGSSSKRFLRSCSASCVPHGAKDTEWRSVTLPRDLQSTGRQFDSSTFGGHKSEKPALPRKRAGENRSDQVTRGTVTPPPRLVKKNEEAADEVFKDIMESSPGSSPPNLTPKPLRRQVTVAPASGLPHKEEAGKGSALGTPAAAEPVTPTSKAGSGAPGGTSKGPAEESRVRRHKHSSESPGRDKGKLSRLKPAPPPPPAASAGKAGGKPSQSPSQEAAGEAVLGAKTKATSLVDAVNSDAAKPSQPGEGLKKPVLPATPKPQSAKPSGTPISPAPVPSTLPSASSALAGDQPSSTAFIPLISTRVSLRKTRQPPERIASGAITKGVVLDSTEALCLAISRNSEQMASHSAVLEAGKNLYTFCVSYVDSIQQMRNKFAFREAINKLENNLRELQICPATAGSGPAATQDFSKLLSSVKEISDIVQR

effect of a mutation on the interaction | Variant
with no effect | N642H
